In PMC7883444:

Target: HRD1 (HMG-CoA reductase degradation protein 1, synoviolin) (UniProt Q86TM6)
Assay: anti-Myc co-IP, anti-Flag blot
Details: reference: WT Flag-PFKP; sites S386

Question: Which “binding against the reference” value does the source give for “PFKP (platelet isoform of phosphofructokinase) (from UniProt Q01813) Flag-PFKP S386A” here?
Answer: stronger
